Source: US10464978B2, “Peptides and combination of peptides for use in immunotherapy against ovarian cancer and other cancers” (immatics biotechnologies GmbH, priority 2015, dated 2019)

Biological target: HLA-A*02:01 (Homo sapiens, UniProt P04439, D140Y/D185E/D98H/E176V/E277Q/G131W/G231S/I119V/I121R/I166T/I218V/L300P/L318F/N151K/N90K/P208A/P217A/Q86G/Q94H/R138H/R169H/T345S)
Assay: MHC binding assay: UV-ligand exchange with beta2m ELISA (peptide exchange yield)
Conditions: binding to HLA-A*02:01
How it was run: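 Peptide-MHC complexes formed by UV-ligand exchange, a UV-cleavable peptide being replaced by the candidate peptide. Exchange products diluted 100-fold, captured on streptavidin-coated plates for 1h at 37° C, then detected with 2 ug/ml HRP anti-β2m (1h, 37° C) and TMB, absorbance 450 nm; value is exchange yield.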

| Substance | Peptide exchange (MHC class I binding score, peptide exchange yield) |
| --- | --- |
| 295 (VLDRESPNV; listed as Homo sapiens) [compound 295] | “+++” (≥50 = +++) |
| 296 (FMEGAIIYV; listed as Homo sapiens) [compound 296] | “+++” (≥50 = +++) |
| 297 (VLADIELAQA; listed as Homo sapiens) [compound 297] | “+++” (≥50 = +++) |
| 298 (VMITKLVEV; listed as Homo sapiens) [compound 298] | “+++” (≥50 = +++) |
| 299 (YLLETSGNL; listed as Homo sapiens) [compound 299] | “+++” (≥50 = +++) |
| 300 (ALLGQTFSL; listed as Homo sapiens) [compound 300] | “+++” (≥50 = +++) |
| 301 (FLVEDLVDSL; listed as Homo sapiens) [compound 301] | “+++” (≥50 = +++) |
| 302 (ALLQEGEVYSA; listed as Homo sapiens) [compound 302] | “+++” (≥50 = +++) |
| 303 (AILPQLFMV; listed as Homo sapiens) [compound 303] | “++++” (≥75% = ++++) |
| 304 (MTLGQIYYL; listed as Homo sapiens) [compound 304] | “+++” (≥50 = +++) |
| 305 (SIANFSEFYV; listed as Homo sapiens) [compound 305] | “++++” (≥75% = ++++) |
| 306 (ALVNVQIPL; listed as Homo sapiens) [compound 306] | “+++” (≥50 = +++) |
| 307 (ALPVSLPQI; listed as Homo sapiens) [compound 307] | “+++” (≥50 = +++) |
| 308 (SQYSGQLHEV; listed as Homo sapiens) [compound 308] | “+++” (≥50 = +++) |
| 309 (GLFDGVPTTA; listed as Homo sapiens) [compound 309] | “+++” (≥50 = +++) |
| 310 (FLVDTPLARA; listed as Homo sapiens) [compound 310] | “++++” (≥75% = ++++) |
| 311 (RLYTGMHTV; listed as Homo sapiens) [compound 311] | “+++” (≥50 = +++) |
| 312 (IISDLTIAL; listed as Homo sapiens) [compound 312] | “+++” (≥50 = +++) |
| 313 (VLFDDELLMV; listed as Homo sapiens) [compound 313] | “+++” (≥50 = +++) |
| 314 (ALIAEGIALV; listed as Homo sapiens) [compound 314] | “+++” (≥50 = +++) |
| 315 (YLQDVVEQA; listed as Homo sapiens) [compound 315] | “+++” (≥50 = +++) |

| Substance | Peptide exchange (MHC class I binding score, peptide exchange yield) |
| --- | --- |
| 316 (ILLERLWYV; listed as Homo sapiens) [compound 316] | “+++” (≥50 = +++) |
| 317 (SLAALVVHV; listed as Homo sapiens) [compound 317] | “+++” (≥50 = +++) |
| 318 (GLINTGVLSV; listed as Homo sapiens) [compound 318] | “++” (≥20% = ++) |
| 319 (SLEPQIQPV; listed as Homo sapiens) [compound 319] | “++” (≥20% = ++) |
| 320 (KMFEFVEPLL; listed as Homo sapiens) [compound 320] | “++++” (≥75% = ++++) |
| 321 (GLFEDVTQPGILL; listed as Homo sapiens) [compound 321] | “++++” (≥75% = ++++) |
| 322 (TLMTSLPAL; listed as Homo sapiens) [compound 322] | “+++” (≥50 = +++) |
| 324 (FLYDEIEAEV; listed as Homo sapiens) [compound 324] | “+++” (≥50 = +++) |
| 325 (FIMPATVADATAV; listed as Homo sapiens) [compound 325] | “+++” (≥50 = +++) |
| 326 (FLPEALDFV; listed as Homo sapiens) [compound 326] | “+++” (≥50 = +++) |
| 327 (GLAPFTEGISFV; listed as Homo sapiens) [compound 327] | “+++” (≥50 = +++) |
| 328 (ALNDQVFEI; listed as Homo sapiens) [compound 328] | “+++” (≥50 = +++) |
| 329 (FLVTLNNVEV; listed as Homo sapiens) [compound 329] | “++++” (≥75% = ++++) |
| 330 (QLALKVEGV; listed as Homo sapiens) [compound 330] | “+++” (≥50 = +++) |
| 331 (KVDTVWVNV; listed as Homo sapiens) [compound 331] | “+++” (≥50 = +++) |
| 332 (YLISELEAA; listed as Homo sapiens) [compound 332] | “+++” (≥50 = +++) |
| 333 (FLPDANSSV; listed as Homo sapiens) [compound 333] | “++” (≥20% = ++) |
| 334 (TLTKVLVAL; listed as Homo sapiens) [compound 334] | “+++” (≥50 = +++) |
| 335 (YSLSSVVTV; listed as Homo sapiens) [compound 335] | “+++” (≥50 = +++) |
| 336 (ILLTAIVQV; listed as Homo sapiens) [compound 336] | “+++” (≥50 = +++) |
| 337 (HLLSELEAAPYL; listed as Homo sapiens) [compound 337] | “++++” (≥75% = ++++) |

| Substance | Peptide exchange (MHC class I binding score, peptide exchange yield) |
| --- | --- |
| 339 (GLWEIENNPTVKA; listed as Homo sapiens) [compound 339] | “++++” (≥75% = ++++) |
| 340 (ALLSMTFPL; listed as Homo sapiens) [compound 340] | “++++” (≥75% = ++++) |
| 341 (SQIALNEKLVNL; listed as Homo sapiens) [compound 341] | “+++” (≥50 = +++) |
| 342 (HIYDKVMTV; listed as Homo sapiens) [compound 342] | “+++” (≥50 = +++) |
| 343 (SLLEVNEESTV; listed as Homo sapiens) [compound 343] | “+++” (≥50 = +++) |
| 344 (YLQDQHLLLTV; listed as Homo sapiens) [compound 344] | “+++” (≥50 = +++) |
| 345 (VIWKALIHL; listed as Homo sapiens) [compound 345] | “+++” (≥50 = +++) |
| 346 (LLDSKVPSV; listed as Homo sapiens) [compound 346] | “+++” (≥50 = +++) |
| 347 (SLFKHDPAAWEA; listed as Homo sapiens) [compound 347] | “++++” (≥75% = ++++) |
| 348 (ILLDVKTRL; listed as Homo sapiens) [compound 348] | “++++” (≥75% = ++++) |
| 349 (SLTEYLQNV; listed as Homo sapiens) [compound 349] | “++++” (≥75% = ++++) |
| 350 (ALLDVTHSELTV; listed as Homo sapiens) [compound 350] | “+++” (≥50 = +++) |
| 351 (SLIPNLRNV; listed as Homo sapiens) [compound 351] | “+++” (≥50 = +++) |
| 352 (SLLELLHIYV; listed as Homo sapiens) [compound 352] | “+++” (≥50 = +++) |
| 353 (YLFEMDSSL; listed as Homo sapiens) [compound 353] | “++” (≥20% = ++) |
| 354 (LILEGVDTV; listed as Homo sapiens) [compound 354] | “++” (≥20% = ++) |
| 355 (SIQQSIERLLV; listed as Homo sapiens) [compound 355] | “++” (≥20% = ++) |
| 356 (KLLGKLPEL; listed as Homo sapiens) [compound 356] | “+++” (≥50 = +++) |
| 357 (SMHDLVLQV; listed as Homo sapiens) [compound 357] | “+++” (≥50 = +++) |
